Source: patent US20260125472A1 (HEFEI TG IMMUNOPHARMA, published 2026)

B1: Cross314×Trop2 (bispecific antibody)
scFv: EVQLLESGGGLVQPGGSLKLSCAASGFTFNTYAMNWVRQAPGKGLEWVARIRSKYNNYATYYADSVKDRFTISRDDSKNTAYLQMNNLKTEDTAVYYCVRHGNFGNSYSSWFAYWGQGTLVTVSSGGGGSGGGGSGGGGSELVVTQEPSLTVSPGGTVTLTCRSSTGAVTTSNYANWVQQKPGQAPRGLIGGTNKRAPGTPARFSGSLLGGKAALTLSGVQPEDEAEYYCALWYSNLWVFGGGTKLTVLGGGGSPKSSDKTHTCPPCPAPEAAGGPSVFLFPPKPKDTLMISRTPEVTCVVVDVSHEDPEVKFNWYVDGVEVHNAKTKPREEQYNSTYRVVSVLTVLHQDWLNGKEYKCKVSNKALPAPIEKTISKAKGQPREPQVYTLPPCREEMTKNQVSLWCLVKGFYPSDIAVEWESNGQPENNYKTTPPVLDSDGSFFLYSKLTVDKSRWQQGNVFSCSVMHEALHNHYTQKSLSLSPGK
heavy: QVQLQQSGSELKKPGASVKVSCKASGYTFTNYGMNWVKQAPGQGLKWMGWINTYTGEPTYTDDFKGRFAFSLDTSVSTAYLQISSLKADDTAVYFCARGGFGSSYWYFDVWGQGSLVTVSSASTKGPSVFPLAPSSKSTSGGTAALGCLVKDYFPEPVTVSWNSGALTSGVHTFPAVLQSSGLYSLSSVVTVPSSSLGTQTYICNVNHKPSNTKVDKKVEPKSSDKTHTCPPCPAPEAAGGPSVFLFPPKPKDTLMISRTPEVTCVVVDVSHEDPEVKFNWYVDGVEVHNAKTKPREEQYNSTYRVVSVLTVLHQDWLNGKEYKCKVSNKALPAPIEKTISKAKGQPREPQVCTLPPSREEMTKNQVSLSCAVKGFYPSDIAVEWESNGQPENNYKTTPPVLDSDGSFFLVSKLTVDKSRWQQGNVFSCSVMHEALHNHYTQKSLSLSPGK
light: DIQLTQSPSSLSASVGDRVSITCKASQDVSIAVAWYQQKPGKAPKLLIYSASYRYTGVPDRFSGSGSGTDFTLTISSLQPEDFAVYYCQQHYITPLTFGAGTKVEIKRTVAAPSVFIFPPSDEQLKSGTASVVCLLNNFYPREAKVQWKVDNALQSGNSQESVTEQDSKDSTYSLSSTLTLSKADYEKHKVYACEVTHQGLSSPVTKSFNRGEC
B2: Cross326×Trop2 (bispecific antibody)
scFv: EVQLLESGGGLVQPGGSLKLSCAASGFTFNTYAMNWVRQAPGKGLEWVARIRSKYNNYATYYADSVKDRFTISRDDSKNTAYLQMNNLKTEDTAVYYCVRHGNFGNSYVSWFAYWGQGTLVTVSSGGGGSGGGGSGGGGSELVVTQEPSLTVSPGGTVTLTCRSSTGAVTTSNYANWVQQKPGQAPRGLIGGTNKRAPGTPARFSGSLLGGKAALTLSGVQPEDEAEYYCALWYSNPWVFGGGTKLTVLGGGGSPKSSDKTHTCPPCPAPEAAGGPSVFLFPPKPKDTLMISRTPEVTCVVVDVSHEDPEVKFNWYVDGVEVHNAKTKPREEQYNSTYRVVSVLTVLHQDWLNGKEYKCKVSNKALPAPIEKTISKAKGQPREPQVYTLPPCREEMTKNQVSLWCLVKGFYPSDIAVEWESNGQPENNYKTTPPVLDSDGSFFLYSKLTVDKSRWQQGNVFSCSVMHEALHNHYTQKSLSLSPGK
heavy: B1 heavy
light: B1 light
B3: Cross316×Trop2 (bispecific antibody)
scFv: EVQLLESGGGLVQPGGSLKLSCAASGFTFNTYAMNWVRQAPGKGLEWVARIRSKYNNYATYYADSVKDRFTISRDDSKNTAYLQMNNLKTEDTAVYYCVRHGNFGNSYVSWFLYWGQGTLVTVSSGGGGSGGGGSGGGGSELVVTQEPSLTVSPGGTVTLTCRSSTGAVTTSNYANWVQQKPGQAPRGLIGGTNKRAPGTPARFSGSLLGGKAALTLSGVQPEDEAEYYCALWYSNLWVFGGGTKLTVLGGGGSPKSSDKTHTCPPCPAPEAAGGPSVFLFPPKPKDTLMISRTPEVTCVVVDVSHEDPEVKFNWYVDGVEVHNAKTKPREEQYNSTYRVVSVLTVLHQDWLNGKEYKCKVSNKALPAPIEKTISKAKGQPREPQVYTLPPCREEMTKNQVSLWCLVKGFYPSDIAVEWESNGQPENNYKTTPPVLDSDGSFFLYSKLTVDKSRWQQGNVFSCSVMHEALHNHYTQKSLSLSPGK
heavy: B1 heavy
light: B1 light
B4: Cross323×Trop2 (bispecific antibody)
scFv: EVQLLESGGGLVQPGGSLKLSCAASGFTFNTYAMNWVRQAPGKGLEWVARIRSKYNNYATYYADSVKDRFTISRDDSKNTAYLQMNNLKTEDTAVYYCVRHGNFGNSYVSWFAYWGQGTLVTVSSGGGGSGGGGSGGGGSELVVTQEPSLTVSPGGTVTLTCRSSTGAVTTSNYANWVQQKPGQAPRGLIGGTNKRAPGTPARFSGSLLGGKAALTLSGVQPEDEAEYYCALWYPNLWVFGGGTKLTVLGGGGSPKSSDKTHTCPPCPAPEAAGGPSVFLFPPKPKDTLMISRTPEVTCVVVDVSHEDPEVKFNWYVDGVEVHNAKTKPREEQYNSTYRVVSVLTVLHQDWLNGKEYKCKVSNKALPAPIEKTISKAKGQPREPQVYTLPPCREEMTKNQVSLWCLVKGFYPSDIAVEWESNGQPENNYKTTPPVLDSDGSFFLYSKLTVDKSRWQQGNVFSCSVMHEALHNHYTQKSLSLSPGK
heavy: B1 heavy
light: B1 light
B5: Cross325×Trop2 (bispecific antibody)
scFv: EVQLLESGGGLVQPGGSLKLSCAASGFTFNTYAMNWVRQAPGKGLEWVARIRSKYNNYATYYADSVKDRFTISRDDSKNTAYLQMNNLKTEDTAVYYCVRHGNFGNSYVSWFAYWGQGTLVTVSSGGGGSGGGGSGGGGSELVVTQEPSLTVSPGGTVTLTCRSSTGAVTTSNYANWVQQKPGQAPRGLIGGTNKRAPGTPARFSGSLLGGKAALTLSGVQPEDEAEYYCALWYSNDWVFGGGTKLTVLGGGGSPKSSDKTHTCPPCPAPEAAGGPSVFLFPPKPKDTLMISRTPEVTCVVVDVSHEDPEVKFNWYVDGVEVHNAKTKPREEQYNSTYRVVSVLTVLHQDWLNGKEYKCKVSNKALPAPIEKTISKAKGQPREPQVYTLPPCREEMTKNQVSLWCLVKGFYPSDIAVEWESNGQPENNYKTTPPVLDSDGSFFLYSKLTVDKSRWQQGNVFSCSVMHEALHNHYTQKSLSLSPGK
heavy: B1 heavy
light: B1 light
B6: Cross318×Trop2 (bispecific antibody)
scFv: not shown
heavy: B1 heavy
light: B1 light
B7: Cross303×PDL1 (bispecific antibody, human IgG1, kappa, L234A L235A)
scFv: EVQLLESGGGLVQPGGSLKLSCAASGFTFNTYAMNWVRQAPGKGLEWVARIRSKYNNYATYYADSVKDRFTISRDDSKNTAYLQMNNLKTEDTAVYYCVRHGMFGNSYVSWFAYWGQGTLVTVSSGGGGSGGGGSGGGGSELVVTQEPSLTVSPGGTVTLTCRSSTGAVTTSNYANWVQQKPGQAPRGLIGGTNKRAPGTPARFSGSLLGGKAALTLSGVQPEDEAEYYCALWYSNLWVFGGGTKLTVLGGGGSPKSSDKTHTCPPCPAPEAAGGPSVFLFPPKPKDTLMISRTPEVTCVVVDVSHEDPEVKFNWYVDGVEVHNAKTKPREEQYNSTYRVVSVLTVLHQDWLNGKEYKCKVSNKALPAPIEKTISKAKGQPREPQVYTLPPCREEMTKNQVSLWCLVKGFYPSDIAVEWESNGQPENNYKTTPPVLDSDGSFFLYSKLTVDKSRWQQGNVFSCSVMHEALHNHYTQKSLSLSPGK
heavy: QVQLVQSGAEVKKPGASVKVSCKASGYSFTGYYMHWVRQAPGQGLEWIGRINPYNGATTYSQNFKDRATMTVDTSISTAYMELSRLRSDDTAVYYCVPTGMGYFLMDYWGQGTLVTVSSASTKGPSVFPLAPSSKSTSGGTAALGCLVKDYFPEPVTVSWNSGALTSGVHTFPAVLQSSGLYSLSSVVTVPSSSLGTQTYICNVNHKPSNTKVDKKVEPKSCDKTHTCPPCPAPEAAGGPSVFLFPPKPKDTLMISRTPEVTCVVVDVSHEDPEVKFNWYVDGVEVHNAKTKPREEQYNSTYRVVSVLTVLHQDWLNGKEYKCKVSNKALPAPIEKTISKAKGQPREPQVCTLPPSREEMTKNQVSLSCAVKGFYPSDIAVEWESNGQPENNYKTTPPVLDSDGSFFLVSKLTVDKSRWQQGNVFSCSVMHEALHNHYTQKSLSLSPGK
light: DIQLTQSPSFLSASVGDRVTITCKASQDVGSAVVWYQQKPGKAPKLLIYWASTRHTGVPSRFSGSGSGTEFTLTISSLQPEDFATYFCQQFTSYPTFGQGTKLEIKRTVAAPSVFIFPPSDEQLKSGTASVVCLLNNFYPREAKVQWKVDNALQSGNSQESVTEQDSKDSTYSLSSTLTLSKADYEKHKVYACEVTHQGLSSPVTKSFNRGEC
B8: Cross312×PDL1 (bispecific antibody, human IgG1, kappa, L234A L235A)
scFv: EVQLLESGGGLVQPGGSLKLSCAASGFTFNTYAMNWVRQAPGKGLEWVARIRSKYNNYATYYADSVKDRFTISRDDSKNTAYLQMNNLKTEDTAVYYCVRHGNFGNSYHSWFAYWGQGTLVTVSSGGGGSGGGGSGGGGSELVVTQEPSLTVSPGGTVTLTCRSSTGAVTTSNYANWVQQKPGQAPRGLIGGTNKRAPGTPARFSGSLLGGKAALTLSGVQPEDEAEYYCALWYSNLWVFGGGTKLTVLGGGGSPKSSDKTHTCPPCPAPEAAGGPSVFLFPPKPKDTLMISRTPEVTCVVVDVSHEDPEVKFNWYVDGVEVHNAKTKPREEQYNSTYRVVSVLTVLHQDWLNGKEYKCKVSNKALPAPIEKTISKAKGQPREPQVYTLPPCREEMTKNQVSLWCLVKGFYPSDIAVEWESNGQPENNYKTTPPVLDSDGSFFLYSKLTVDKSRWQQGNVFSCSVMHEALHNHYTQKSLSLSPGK
heavy: B7 heavy
light: B7 light
B9: Cross314×PDL1 (bispecific antibody, human IgG1, kappa, L234A L235A)
scFv: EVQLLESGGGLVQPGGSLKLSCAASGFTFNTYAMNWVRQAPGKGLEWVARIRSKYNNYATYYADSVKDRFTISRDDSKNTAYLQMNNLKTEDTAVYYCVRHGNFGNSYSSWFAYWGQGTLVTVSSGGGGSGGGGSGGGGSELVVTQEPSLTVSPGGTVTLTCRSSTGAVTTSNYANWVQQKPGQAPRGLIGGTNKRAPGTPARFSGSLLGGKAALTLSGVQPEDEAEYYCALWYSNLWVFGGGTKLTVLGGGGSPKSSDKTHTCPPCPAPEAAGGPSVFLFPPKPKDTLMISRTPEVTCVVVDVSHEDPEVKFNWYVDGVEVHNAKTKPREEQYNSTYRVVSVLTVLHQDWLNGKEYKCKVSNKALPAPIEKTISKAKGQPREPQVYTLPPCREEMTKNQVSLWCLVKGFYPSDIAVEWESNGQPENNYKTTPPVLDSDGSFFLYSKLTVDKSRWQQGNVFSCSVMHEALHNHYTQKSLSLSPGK
heavy: B7 heavy
light: B7 light
B10: Cross307×PDL1 (bispecific antibody, human IgG1, kappa, L234A L235A)
scFv: not shown
heavy: B7 heavy
light: B7 light
B11: Cross311×PDL1 (bispecific antibody, human IgG1, kappa, L234A L235A)
scFv: not shown
heavy: B7 heavy
light: B7 light
B12: Cross308×PDL1 (bispecific antibody, human IgG1, kappa, L234A L235A)
scFv: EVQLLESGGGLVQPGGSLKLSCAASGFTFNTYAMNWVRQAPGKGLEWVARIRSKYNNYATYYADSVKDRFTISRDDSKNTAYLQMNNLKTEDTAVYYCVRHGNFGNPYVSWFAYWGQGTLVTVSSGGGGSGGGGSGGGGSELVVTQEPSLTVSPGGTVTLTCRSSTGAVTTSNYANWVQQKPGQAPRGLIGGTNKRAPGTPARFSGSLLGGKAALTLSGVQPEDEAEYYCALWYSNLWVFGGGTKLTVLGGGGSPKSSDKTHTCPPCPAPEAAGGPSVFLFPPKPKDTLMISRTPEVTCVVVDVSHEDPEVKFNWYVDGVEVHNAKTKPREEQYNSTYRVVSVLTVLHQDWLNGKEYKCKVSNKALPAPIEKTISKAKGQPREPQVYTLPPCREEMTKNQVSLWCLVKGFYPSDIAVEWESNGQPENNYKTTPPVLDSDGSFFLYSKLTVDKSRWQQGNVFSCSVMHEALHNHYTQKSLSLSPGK
heavy: B7 heavy
light: B7 light

Assays:
Trop2 protein = biological target: T1, Trop2 protein (UniProt P09758 27-274); test: ELISA, coated Trop2 protein, OD450
T1 construct: Bought recombinant protein; also called Trop2-Biotin protein (biotin-labelled, bridging ELISA)
T1 sequence (looked up): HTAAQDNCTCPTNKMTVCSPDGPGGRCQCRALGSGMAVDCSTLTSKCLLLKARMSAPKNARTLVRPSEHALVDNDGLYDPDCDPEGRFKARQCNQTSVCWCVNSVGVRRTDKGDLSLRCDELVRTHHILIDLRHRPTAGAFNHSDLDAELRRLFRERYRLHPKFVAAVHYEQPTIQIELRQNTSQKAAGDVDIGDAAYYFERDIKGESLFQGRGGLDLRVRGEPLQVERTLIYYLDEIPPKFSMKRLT
Text: In this example, the binding properties of the CD3×Trop2 and CD3×PDL1 bispecific antibody (the production method and the amino acid sequences of the heavy and light chains were shown in Example 1) were detected by using ELISA. The CD3E&D, Trop2, or PDL1 protein was coated onto 96-well plates by inventors, and the strength of the signal after the addition of the antibody was used to determine the binding properties of the antibody and the corresponding protein.
(2) Trop2 protein (purchased from Acro) was diluted to 2 μg/ml with PBS buffer, added to a 96-well plate at a volume of 100 μL/well, and placed at 4° C. overnight. The PBS buffer in the 96-well plate was aspirated, and the plate was washed 6 times with PBST (pH 7.2 PBS containing 0.1% Tween 20) buffer. Then, 200 μL/well PBS/10% BSA was added and incubated at 37° C. for 2 h for blocking. The blocking solution was removed, and the plate was washed six times with PBST. Then, the to-be-tested bispecific antibodies, Cross3×Trop2, Cross303×Trop2, Cross307×Trop2, Cross308×Trop2, Cross309×Trop2, Cross310×Trop2, Cross311×Trop2, Cross312×Trop2, Cross313×Trop2, Cross314×Trop2, Cross316×Trop2, Cross317×Trop2, Cross318×Trop2, Cross323×Trop2, Cross325×Trop2, Cross326×Trop2, and control IgG1LALA (purchased from Bio-Tech), serially diluted with PBST/0.05% BSA, were added at 100 μL/well and incubated at 37° C. for 1 h. The reaction system was removed, and the plate was washed 6 times with PBST. Then, HRP (horseradish peroxidase)-labeled anti-human secondary antibody (Fab specific) (purchased from Sigma) diluted with PBST/0.05% BSA at 100 μL/well. After the plate was washed six times with PBST, TMB (tetramethylbenzidine) was added at 80 μL/well, and incubated at room temperature for 3 min. 4 M sulfuric acid was added at 80 μL/well to terminate the reaction. The absorbance was read at 450 nm using a microplate reader.

[1] = biological target: T2, Trop2 on A-375-Trop2 melanoma cells (UniProt P09758 27-323, limits assumed); test: flow cytometry, A-375-Trop2 cells, MFI [panel B]
T2 construct: whole, on cells
T2 sequence (looked up): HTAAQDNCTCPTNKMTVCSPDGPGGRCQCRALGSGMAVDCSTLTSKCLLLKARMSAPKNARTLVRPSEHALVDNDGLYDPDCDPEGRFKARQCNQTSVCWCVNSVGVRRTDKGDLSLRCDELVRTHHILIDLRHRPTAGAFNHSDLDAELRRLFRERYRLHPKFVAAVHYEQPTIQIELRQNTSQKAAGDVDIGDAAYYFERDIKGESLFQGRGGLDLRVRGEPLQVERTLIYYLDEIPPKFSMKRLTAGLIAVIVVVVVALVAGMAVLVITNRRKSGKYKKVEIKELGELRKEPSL
Procedure: (§1) (2) The tumor cells were diluted to 2×10⁶/ml with PBS and added to a 1.5 ml EP tube at a volume of 100 μl/tube, and goat serum was added thereto at 10 μl/tube. The cells were blocked at 4° C. for 30 min. The serially diluted bispecific antibodies, Cross3×Trop2, Cross303×Trop2, Cross307×Trop2, Cross308×Trop2, Cross309×Trop2, Cross310×Trop2, Cross311×Trop2, Cross312×Trop2, Cross313×Trop2, Cross314×Trop2, Cross316×Trop2, Cross317×Trop2, Cross318×Trop2, Cross323×Trop2, Cross325×Trop2, Cross326×Trop2, and Cross3×PDL1, Cross303×PDL1, Cross307×PDL1, Cross308×PDL1, Cross309×PDL1, Cross310×PDL1, Cross311×PDL1, Cross312×PDL1, Cross313×PDL1, Cross314×PDL1, Cross316×PDL1, Cross317×PDL1, Cross318×PDL1, Cross323×PDL1, Cross325×PDL1, Cross326×PDL1, and control hIgG1LALA (purchased from Bio-Tech) were added and incubated at 4° C. for 30 min. 1 ml of PBS was added to the EP tube, followed by centrifugation at 3500 rpm for 5 min at 4° C. The supernatant was discarded, and the cells were washed again with PBS. After centrifugation, the supernatant was completely discarded, and the cells were resuspended with PBS at 100 μl/tube. Alexa-647-labeled goat anti-human IgG secondary antibody (purchased from Jackson lab) was added at 1 μl/tube and incubated at 4° C. in the dark for 30 min. The cells were washed twice with PBS, and the supernatant was completely discarded after centrifugation. The cells were resuspended with PBS at 200 μl/tube and assay was performed using the flow cytometry.

[2] = biological target: T3, PDL1 on A-375 melanoma cells, HCT-15 colorectal cancer cells and A549 lung cancer cells (UniProt Q9NZQ7 19-290, limits assumed); test: flow cytometry, A549 cells, MFI [panel B]
T3 construct: whole, on cells
Procedure: as §1

PDL1 protein = biological target: T4, PDL1 protein (UniProt Q9NZQ7 19-238); test: ELISA, coated PDL1 protein, OD450 [panel A]
T4 construct: Bought recombinant protein
Procedure: (3) PDL1 protein (purchased from Acro) was diluted to 2 μg/ml with PBS buffer, added to a 96-well plate at a volume of 100 μL/well, and placed at 4° C. overnight. The PBS buffer in the 96-well plate was aspirated, and the plate was washed 6 times with PBST (pH 7.2 PBS containing 0.10% Tween 20) buffer. Then, PBS/10% BSA was added at 200 μL/well and incubated at 37° C. for 2 h for blocking. The blocking solution was removed, and the plate was washed six times with PBST. Then, the to-be-tested bispecific antibodies serially diluted with PBST/0.05% BSA, Cross3×PDL1, Cross303×PDL1, Cross307×PDL1, Cross308×PDL1, Cross309×PDL1, Cross310×PDL1, Cross311×PDL1, Cross312×PDL1, Cross313×PDL1, Cross314×PDL1, Cross316×PDL1, Cross317×PDL1, Cross318×PDL1, Cross323×PDL1, Cross325×PDL1, Cross326×PDL1, and control IgG1LALA (purchased from Bio-Tech) were added at 100 μL/well, and incubated at 37° C. for 1 h. The reaction system was removed, and the plate was washed 6 times with PBST. Then, the cells were incubated at 37° C. for 1 h with HRP (horseradish peroxidase)-labeled anti-human secondary antibody (Fab specific) (purchased from Sigma) serially diluted with PBST/0.05% BSA at 100 μL/well. After the plate was washed six times with PBST, TMB (tetramethylbenzidine) was added at 80 μL/well and incubated at room temperature for 3 min. 4 M sulfuric acid was added at 80 μL/well to terminate the reaction. The absorbance was read at 450 nm using a microplate reader.

T3 sequence (Q9NZQ7 19-290 limits assumed): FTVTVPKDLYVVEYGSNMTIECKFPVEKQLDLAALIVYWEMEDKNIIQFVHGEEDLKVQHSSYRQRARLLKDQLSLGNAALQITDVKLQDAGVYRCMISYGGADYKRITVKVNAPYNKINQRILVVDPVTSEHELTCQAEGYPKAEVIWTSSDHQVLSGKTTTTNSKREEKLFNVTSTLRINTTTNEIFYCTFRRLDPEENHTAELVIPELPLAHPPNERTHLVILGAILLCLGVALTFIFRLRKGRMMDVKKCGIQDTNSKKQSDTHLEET
T4 sequence (Q9NZQ7 19-238 limits assumed): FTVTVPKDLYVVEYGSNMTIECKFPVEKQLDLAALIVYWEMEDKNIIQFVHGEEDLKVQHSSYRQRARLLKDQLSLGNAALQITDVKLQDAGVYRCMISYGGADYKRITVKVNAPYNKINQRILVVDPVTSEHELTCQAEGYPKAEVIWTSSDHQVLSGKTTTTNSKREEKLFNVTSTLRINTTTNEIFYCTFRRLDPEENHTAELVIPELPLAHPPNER

Row | Binder | EC50 (read off the curve) (Trop2 protein) [ng/mL] | EC50 (read off the curve) [1] [µg/mL] | EC50 (read off the curve) [2] [µg/mL] | EC50 (read off the curve) (PDL1 protein) [ng/mL]
1 | B1 | ~8 | ~1 | – | –
2 | B2 | ~8 | ~1 | – | –
3 | B3 | ~8 | ~1 | – | –
4 | B4 | ~8 | ~1 | – | –
5 | B5 | ~8 | ~1 | – | –
6 | B6 | ~20 | ~1 | – | –
7 | B7 | – | – | ~1 | ~200
8 | B8 | – | – | ~2 | ~200
9 | B9 | – | – | ~1 | ~200
10 | B10 | – | – | ~1 | ~200
11 | B11 | – | – | ~1 | ~200
12 | B12 | – | – | ~1 | ~200
